Results from US20230272099A1 (Chugai, published 2023).
Residue numbers refer to the chain shown, from its start.

T1: human FcgRIIa type R extracellular domain (human, UniProt P12318 34-217)
T1 construct: extracellular domain; also called hFcgRIIaR
T1 sequence (looked up): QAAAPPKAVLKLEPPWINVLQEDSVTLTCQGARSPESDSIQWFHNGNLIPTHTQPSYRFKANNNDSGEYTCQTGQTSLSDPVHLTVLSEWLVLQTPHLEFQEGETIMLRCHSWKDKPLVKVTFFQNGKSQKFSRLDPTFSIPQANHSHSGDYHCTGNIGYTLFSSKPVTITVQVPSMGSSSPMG

T2: human FcgRIIa type H extracellular domain (human, UniProt P12318 34-217)
T2 construct: extracellular domain; also called hFcgRIIaH
T2 sequence (looked up): T1 sequence (looked up) with R134H

T3: human FcgRIIb extracellular domain (human, UniProt P31994 43-217)
T3 construct: extracellular domain; also called hFcgRIIb
T3 sequence (looked up): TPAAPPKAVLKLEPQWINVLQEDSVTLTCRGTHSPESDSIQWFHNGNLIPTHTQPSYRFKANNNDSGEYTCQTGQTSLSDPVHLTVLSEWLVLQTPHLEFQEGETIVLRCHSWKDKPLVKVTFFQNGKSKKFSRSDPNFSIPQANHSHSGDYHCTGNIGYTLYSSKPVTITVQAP

B1: A375-SCF039/B167-Lamlib (antibody, human IgG1, lambda)
heavy: EVQLVESGGGLVKPGGSLRLSCAASGFTFSTFTMNWVRQAPGKGLEWVSSISSKSTYIEYADSFKVRFTISRDNAKNSLYLQMNSLRAEDTAVYYCARYGAKNFLNWVFDYWGQGTLVTVSSASTKGPSVFPLAPSSKSTSGGTAALGCLVKDYFPEPVTVSWNSGALTSGVHTFPAVLQSSGLYSLSSVVTVPSSSLGTQTYICNVNHKPSNTKVDKKVEPKSCDKTHTCPPCPAPELWNGPSVFLFPPKPKDTLMISRTPEVTCVVVDVSDEDPEVKFNWYVDGVEVHNAKTKPREELYNSTYRVVSVLTVLHQDWLNGKEYKCKVSNTALPKPIEKTISKAKGQRREPQVYTLPPSREEMTKNQVSLTCLVKGFYPSDIAVEWESNGQPENNYKTTPPVLDSDGSFFLYSKLTVDKSRWQQGNVFSCSVMHEALHNHYTQKSLSLSP
light: QSALTQPPSASGSPGQTVTISCTGTRYDVGYYEYVSWYQQHPGKAPKLMIYETSKRLSGVPDRFSGSKSGNTASLTVSGLQAEDEADYYCSSYRYEHQVSFGGGTKLTVLGQPKAAPSVTLFPPSSEELQANKATLVCLISDFYPGAVTVAWKADSSPVKAGVETTTPSKQSNNKYAASSYLSLTPEQWKSHRSYSCQVTHEGSTVEKTVAPTECS
B2: A375-SCF043aPh/B167-Lamlib (antibody, human IgG1, lambda)
heavy: B1 heavy with K219R, L300Q, T331K, D418K
light: B1 light
B3: A375-SCF042a/B167-Lamlib (antibody, human IgG1, lambda)
heavy: B1 heavy with K219R, W240L, L300Q, T331K, R348P, D418K
light: B1 light
notes: copies: 2 + 2
B4: A375-SCF041a/B167-Lamlib (antibody, human IgG1, lambda)
heavy: B1 heavy with K219R, W240L, L300Q, T331K
light: B1 light
B5: A375-SCF056a/B167-Lamlib (antibody, human IgG1, lambda)
heavy: B1 heavy with K219R, W240L, L300Q, Q316R, T331K, R348P
light: B1 light
notes: copies: 2 + 2
B6: A375-SCF040/B167-Lamlib (antibody, human IgG1, lambda)
heavy: B1 heavy with R348P, D418K
light: B1 light
notes: copies: 2 + 2
B7: A375-SCF043a/B167-Lamlib (antibody, human IgG1, lambda)
heavy: B1 heavy with K219R, W240L, L300Q, T331K, D418K
light: B1 light
B8: A375-SCF039a/B167-Lamlib (antibody, human IgG1, lambda)
heavy: B1 heavy with K219R
light: B1 light
B9: A375-SCF056aPh/B167-Lamlib (antibody, human IgG1, lambda)
heavy: B1 heavy with K219R, L300Q, Q316R, T331K, R348P
light: B1 light
notes: copies: 2 + 2
B10: A375-SCF041aPh/B167-Lamlib (antibody, human IgG1, lambda)
heavy: B1 heavy with K219R, L300Q, T331K
light: B1 light

These binders were tested against T1, human FcgRIIa type R extracellular … (assay: SPR 25C).
Procedure: (§1) Biacore T200 (GE Healthcare) was used to evaluate the binding activity to the respective human Fcγ receptor (hereafter referred to as FcγR). Measurement was performed at 25° C. using 50 mM phosphate, 150 mM NaCl, 0.05 w/v %-P20, pH 7.4 as buffer. About 1000 RU of antibody was captured using a sensor chip immobilized with CaptureSelect™ Human Fab-lambda Kinetics Biotin Conjugate (Thermo Fisher Scientific) as a molecule for ligand capturing. Human FcγR was diluted to 8 nM for FcγRIa and 1000 nM for other FcγR in the measurement buffer, and it was interacted to the captured antibody. The binding activity of each antibody to FcγR was assessed by calculating the binding amount of FcγR (RU) per unit amount of antibody using Biacore T200 Evaluation Software 2.0.
With B1 the “binding per 1RU antibody” value was 0.0542 RU and the “relative binding (A375-G1T3/B167-Lamlib=1)” value (“relative binding” below) was 1.17. For B2, the “binding per 1RU antibody” value was 0.0349 RU and the “relative binding” value was 0.75. For B3, the “binding per 1RU antibody” value was 0.0327 RU and the “relative binding” value was 0.71. For B4, the “binding per 1RU antibody” value was 0.0376 RU and the “relative binding” value was 0.81. B5 was tested, and the “binding per 1RU antibody” value was 0.0331 RU and the “relative binding” value was 0.71. B6 was tested, and the “binding per 1RU antibody” value was 0.0446 RU and the “relative binding” value was 0.96. For B7, the “binding per 1RU antibody” value was 0.0361 RU and the “relative binding” value was 0.78. In the case of B8, the “binding per 1RU antibody” value is reported as 0.0554 RU and the “relative binding” value is reported as 1.2. For B9, the “binding per 1RU antibody” value was 0.0299 RU and the “relative binding” value was 0.64. B10 was tested, and the “binding per 1RU antibody” value was 0.0371 RU and the “relative binding” value was 0.8.

What follows are binders tested against T2, human FcgRIIa type H extracellular … (assay: SPR 25C).
Procedure: as §1
With B1 the “binding per 1RU antibody” value was 0.0535 RU and the “relative binding” value was 0.94. For B2, the “binding per 1RU antibody” value was 0.0349 RU and the “relative binding” value was 0.62. With B3 the “binding per 1RU antibody” value was 0.0522 RU and the “relative binding” value was 0.92. B4 was tested, and the “binding per 1RU antibody” value was 0.0571 RU and the “relative binding” value was 1.01. In the case of B5, the “binding per 1RU antibody” value is reported as 0.0529 RU and the “relative binding” value is reported as 0.93. For B6, the “binding per 1RU antibody” value was 0.0454 RU and the “relative binding” value was 0.8. In the case of B7, the “binding per 1RU antibody” value is reported as 0.0552 RU and the “relative binding” value is reported as 0.97. In the case of B8, the “binding per 1RU antibody” value is reported as 0.0542 RU and the “relative binding” value is reported as 0.96. With B9 the “binding per 1RU antibody” value was 0.0314 RU and the “relative binding” value was 0.55. With B10 the “binding per 1RU antibody” value was 0.0371 RU and the “relative binding” value was 0.65.

The binders below were run against T3, human FcgRIIb extracellular domain (assay: SPR 25C).
Procedure: as §1
B1 was tested, and the “binding per 1RU antibody” value was 0.0531 RU and the “relative binding” value was 4.85. With B2 the “binding per 1RU antibody” value was 0.0339 RU and the “relative binding” value was 3.1. With B3 the “binding per 1RU antibody” value was 0.0393 RU and the “relative binding” value was 3.59. With B4 the “binding per 1RU antibody” value was 0.0433 RU and the “relative binding” value was 3.95. For B5, the “binding per 1RU antibody” value was 0.0399 RU and the “relative binding” value was 3.64. For B6, the “binding per 1RU antibody” value was 0.0465 RU and the “relative binding” value was 4.24. With B7 the “binding per 1RU antibody” value was 0.0419 RU and the “relative binding” value was 3.82. B8 was tested, and the “binding per 1RU antibody” value was 0.054 RU and the “relative binding” value was 4.93. For B9, the “binding per 1RU antibody” value was 0.0292 RU and the “relative binding” value was 2.67. B10 was tested, and the “binding per 1RU antibody” value was 0.035 RU and the “relative binding” value was 3.2.

What follows are binders tested against T4, human FcgRIa extracellular domain (human, UniProt P12314 16-292) (assay: SPR 25C).
T4 construct: extracellular domain; also called hFcgRIa
T4 sequence (P12314 16-292): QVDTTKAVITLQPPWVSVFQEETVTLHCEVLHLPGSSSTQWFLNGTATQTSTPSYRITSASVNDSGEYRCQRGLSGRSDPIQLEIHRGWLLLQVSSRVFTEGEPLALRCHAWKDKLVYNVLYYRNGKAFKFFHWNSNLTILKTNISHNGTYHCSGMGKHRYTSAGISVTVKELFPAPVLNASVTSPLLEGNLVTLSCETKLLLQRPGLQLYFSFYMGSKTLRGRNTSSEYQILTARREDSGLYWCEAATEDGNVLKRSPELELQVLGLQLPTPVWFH
Procedure: as §1
B1 was tested, and the “binding per 1RU antibody” value was 0.0018 RU and the “relative binding” value was 0.02. With B2 the “binding per 1RU antibody” value was 0.0011 RU and the “relative binding” value was 0.01. In the case of B3, the “binding per 1RU antibody” value is reported as 0.0396 RU and the “relative binding” value is reported as 0.49. B4 was tested, and the “binding per 1RU antibody” value was 0.0446 RU and the “relative binding” value was 0.55. For B5, the “binding per 1RU antibody” value was 0.0395 RU and the “relative binding” value was 0.49. In the case of B6, the “binding per 1RU antibody” value is reported as 0.0016 RU and the “relative binding” value is reported as 0.02. B7 was tested, and the “binding per 1RU antibody” value was 0.0429 RU and the “relative binding” value was 0.53. With B8 the “binding per 1RU antibody” value was 0.0018 RU and the “relative binding” value was 0.02. B9 was tested, and the “binding per 1RU antibody” value was 0.0019 RU and the “relative binding” value was 0.02. With B10 the “binding per 1RU antibody” value was 0.0013 RU and the “relative binding” value was 0.02.

What follows are binders tested against T5, human FcgRIIIa F158 extracellular domain (human, UniProt P08637 17-208) (assay: SPR 25C).
T5 construct: extracellular domain; also called hFcgRIIIaF
T5 sequence (P08637 17-208): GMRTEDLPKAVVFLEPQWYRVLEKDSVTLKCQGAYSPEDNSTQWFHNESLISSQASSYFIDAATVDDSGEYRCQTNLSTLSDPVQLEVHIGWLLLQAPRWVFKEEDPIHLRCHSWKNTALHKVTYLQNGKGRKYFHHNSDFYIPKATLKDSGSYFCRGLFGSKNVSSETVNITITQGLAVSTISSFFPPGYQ
Procedure: as §1
B1 was tested, and the “binding per 1RU antibody” value was 0.0008 RU and the “relative binding” value was 0.04. With B2 the “binding per 1RU antibody” value was 0.0001 RU and the “relative binding” value was 0. In the case of B3, the “binding per 1RU antibody” value is reported as 0.0003 RU and the “relative binding” value is reported as 0.01. B4 was tested, and the “binding per 1RU antibody” value was 0.0009 RU and the “relative binding” value was 0.04. For B5, the “binding per 1RU antibody” value was 0.0011 RU and the “relative binding” value was 0.05. B6 was tested, and the “binding per 1RU antibody” value was 0.001 RU and the “relative binding” value was 0.05. B7 was tested, and the “binding per 1RU antibody” value was 0.0011 RU and the “relative binding” value was 0.05. For B8, the “binding per 1RU antibody” value was 0.0012 RU and the “relative binding” value was 0.06. B9 was tested, and the “binding per 1RU antibody” value was 0.001 RU and the “relative binding” value was 0.05. B10 was tested, and the “binding per 1RU antibody” value was 0.0007 RU and the “relative binding” value was 0.03.

Each binder was assayed against T6, human FcgRIIIa V158 extracellular domain (human, UniProt P08637 17-208) (assay: SPR 25C).
T6 construct: extracellular domain; also called hFcgRIIIaV
T6 sequence (P08637 17-208 F176V): as the sequence (P08637 17-208) above, with F160V counted along it
Procedure: as §1
For B1, the “binding per 1RU antibody” value was 0.0013 RU and the “relative binding” value was 0.02. With B2 the “binding per 1RU antibody” value was 0.0001 RU and the “relative binding” value was 0. B3 was tested, and the “binding per 1RU antibody” value was 0.0014 RU and the “relative binding” value was 0.02. In the case of B4, the “binding per 1RU antibody” value is reported as 0.0022 RU and the “relative binding” value is reported as 0.03. For B5, the “binding per 1RU antibody” value was 0.0023 RU and the “relative binding” value was 0.03. For B6, the “binding per 1RU antibody” value was 0.0013 RU and the “relative binding” value was 0.02. With B7 the “binding per 1RU antibody” value was 0.0025 RU and the “relative binding” value was 0.04. With B8 the “binding per 1RU antibody” value was 0.0013 RU and the “relative binding” value was 0.02. In the case of B9, the “binding per 1RU antibody” value is reported as 0.001 RU and the “relative binding” value is reported as 0.01. With B10 the “binding per 1RU antibody” value was 0.0005 RU and the “relative binding” value was 0.01.

These binders were tested against human FcRn (human, UniProt P55899 24-290; P61769 21-119) (assay: SPR 25C pH 6.0, steady state).
Sequence of human FcRn (P55899 24-290 limits assumed, chain 1 of 2): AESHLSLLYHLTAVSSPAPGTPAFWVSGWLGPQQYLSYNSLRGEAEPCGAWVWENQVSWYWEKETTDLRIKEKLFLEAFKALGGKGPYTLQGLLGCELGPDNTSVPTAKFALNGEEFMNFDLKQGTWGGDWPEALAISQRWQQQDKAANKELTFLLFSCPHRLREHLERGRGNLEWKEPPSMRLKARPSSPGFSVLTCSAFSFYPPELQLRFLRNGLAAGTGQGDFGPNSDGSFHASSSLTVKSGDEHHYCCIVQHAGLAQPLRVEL
Sequence of human FcRn (P61769 21-119 limits assumed, chain 2 of 2): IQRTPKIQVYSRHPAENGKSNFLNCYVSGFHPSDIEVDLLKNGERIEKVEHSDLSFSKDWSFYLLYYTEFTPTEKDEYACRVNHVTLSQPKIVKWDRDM
Procedure: Biacore T200 (GE Healthcare) was used to assess the binding activity to human FcRn. Measurement was performed at 25° C. using 50 mM phosphate, 150 mM NaCl, 0.05 w/v %-P20, pH 6.0 as buffer. Human FcRn proteins used for this determination were prepared by the procedure described in WO2010107110. About 400 RU of antibody was captured using a sensor chip immobilized with CaptureSelect™ Human Fab-lambda Kinetics Biotin Conjugate (Thermo Fisher Scientific) as a molecule for ligand capturing, followed by the binding of human FcRn diluted in measuring buffer. The activity of the respective antibodies to bind FcRn was assessed by calculating KD(mol/L) by the steady-state model using Biacore T200 Evaluation Software 2.0.
B1 showed a Kd of 1090 nM. B2 was tested, and the Kd was 1210 nM. B3 gave a Kd of 1490 nM. Binder B4 has a Kd of 1100 nM. B5 gave a Kd of 956 nM. B6 gave a Kd of 1460 nM. Work on B7 yielded a Kd of 1180 nM. B8 was tested, and the Kd was 1110 nM. Binder B9 has a Kd of 1000 nM. B10 gave a Kd of 1130 nM.
